# Assay results reported in the DeepSol protein solubility set.
# Assay: soluble on expression in E. coli; label from the status in PepcDB or PDB records
row,Sequence,soluble on expression in E. coli
1,MEKQLKAMSVSDKPAAPAAQKLGTAPLAAKKTRNEEWGTKVNIDTNIRKLTIKPNQPIYKYAVQVNYVFRKPDGTEATIEMSKSAKKGTEHDNDKTRCQNVYNEAIKRYDELKTGGPFFYDRQASLYTLTKLKNESISFVVTDKICKRQNFKEAQFVLKKVDQSFQSTSNDVIKTTNSCPANADKTLLEAMNIIVSGPAFENKNVITVGACVHYLIDPTGVDVAYKEYPEGQLYSGVGVSKSVKTLEGTDKKVPSLFMTTEMKTTLFHPDYAPLVELLQTFRGFSTTLKANSPAAQRIEKAFVGLDVVLNYGVHKGLGEDGVVMKIRRFHTSAKETCFEVEKSTREFTNVFDYFKKKYGITLKYPDLFTIEAKGKQGKIHFPAEVLLLCPNQTVTNDQMINNEQADMIKMSAAQPHIRKTTTDTIVRNVGLASNNIYGFIKVEDPVNLEGMVLPKPKIAFAGNRLADLANPKSRFPTDFNRAGQYYDAKELTKWELVFVQNEEVQGLAKQLADEMVNNGMKCSNPTMSFIIRGDLEPIFKKAKAAGTQLLFFVVKSRYNYHQQIKALEQKYDVLTQEIRAETAEKVFRQPQTRLNIINKTNMKLGGLNYAIGSEAFNKPNRLIVGFVTSQRVGGNPDYPISVGFAANMLKHHQKFAGGYVYVHRDRDVFGSIIKDTLLTIFKTCTEQRGRPDDILLYFNGVSEGQFSMINEEFSARVKEACMAFQKEGTPPFRPHITIIASSKAHNERLYKSDKGRIVNLEPGTVVDHTIVSNVYTEWYHASAVARQGTAKATKFTLIFTTKAGPQAEPLWHLEQLTNDLCYDHQIVFHPVGLPVPLYIADRYSQRGAMVLAANQGPIYNEGQIDLAATNSAYGYGEKKLFTTRFNA,not soluble
2,MEKQNLPVVVVGAGPVGLAAAAHLVERGIEPLVLEAGASAATAVRDWAHVRLFSPWAEVTDPAAEKLLAPTGWLRPDGATYPTGGDWAERYLQPLADVLGDQVRYGATVTGVARAGRDRIVDSGREEQPFTVHIETADGGEERIAARAVIDAGRRGVRHADRLEHHHHHH,soluble
3,MEKRNEEHSRKKFIEEQLNALKHEERVLNETRTKLQQQKWHLLQENDKIKEKIRVRDAAAGAGTGTGAPPE,not soluble
4,MEKSVNVIGAGLAGSEAAWQLVKRGVKVDLYEMRPVKQTPAHHTDKFAELVCTNSLRANGLTNAVGVIKEEMRLLDSIIIESADKASVPAGGALAVDRHEFSGYITDKVKNHPLVTIHTEEVTSIPEGPTIIATGPLTSPALAEEIKRLTGEEYLYFYDAAAPIIEKDSIDMDKVYLKSRYDKGEAAYLNCPMSEEEFNTFYEALVTAETAALKEFEKEVFFEGCMPIEVMAKRGIKTMLFGPLKPVGLEDPKTGKRPYAVLQLRQDDAAGTLYNMVGFQTHLKWGEQKRVFGLIPGLENAEIVRYGVMHRNTFINSPTVLEPTYQLKTRNDLFFAGQMTGVEGYVESAASGLAAGINAANFVQDKEPIVFPPESAIGSLANYITSASKKSFQPMNVNFGLFPELPTKIRAKQERNEKLAERALDAIKKVAEQLLEHHHHHH,soluble
5,MEKTITIYTDGAASGNPGKGGWGALLMYGSSRKEISGYDPATTNNRMELMAAIKGLEALKEPARVQLYSDSAYLVNAMNEGWLKRWVKNGWKTAAKKPVENIDLWQEILKLTTLHRVTFHKVKGHSDNPYNSRADELARLAIKENS,soluble
6,MELADVGAAASSQGVHDQVLPTPNASSRVIVHVDLDCFYAQVEMISNPELKDKPLGVQQKYLVVTCNYEARKLGVKKLMNVRDAKEKCPQLVLVNGEDLTRYREMSYKVTELLEEFSPVVERLGFDENFVDLTEMVEKRLQQLQSDELSAVTVSGHVYNNQSINLLDVLHIRLLVGSQIAAEMREAMYNQLGLTGCAGVASNKLLAKLVSGVFKPNQQTVLLPESCQHLIHSLNHIKEIPGIGYKTAKCLEALGINSVRDLQTFSPKILEKELGISVAQRIQKLSFGEDNSPVILSGPPQSFSEEDSFKKCSSEVEAKNKIEELLASLLNRVCQDGRKPHTVRLIIRRYSSEKHYGRESRQCPIPSHVIQKLGTGNYDVMTPMVDILMKLFRNMVNVKMPFHLTLLSVCFCNLKALNTAK,soluble
7,MELKHSISDYTEAEFLEFVKKIARAEGATECDDNKLVREFERLTEHPDGSDLIYYPRDDREDSPEGIVKEIKEWRAANGKSGFKQG,soluble
8,MELPVVDLSSYLDFSGDELGSDLLESCRQVSRILKETGALIVKDPRCCAQDNDRFIDMMENYFEKPDDFKRLQQRPNLHYQVGATPEGVEVPRSLVDEEMQEKFNTMPNEYKPHIPKGPDHKWRYMWRVGPRPSNTRFKELNSEPVVPEGFPGWEEVMDSWGYKMISAVEVVAEMAAIGFGLPKDAFTSLMKQGPHLLAPTGSDLNCYNEEGTIFAGYHYDLNFLTIHGRSRFPGLYIWLRNGEKVAVKVPVGCLLIQAGKQIEWLTAGECIAGMHEVVVTSKTKDAITLAKEQNRSLWRVSSTLFAHIASDAELKPLGHFAESSLASKYPAIPAGEYVEQELSVINLKGNKGSS,soluble
9,MELRVGNKYRLGRKIGSGSFGDIYLGANIASGEEVAIKLECVKTKHPQLHIESKFYKMMQGGVGIPSIKWCGAEGDYNVMVMELLGPSLEDLFNFCSRKFSLKTVLLLADQMISRIEYIHSKNFIHRDVKPDNFLMGLGKKGNLVYIIDFGLAKKYRDARTHQHIPYRENKNLTGTARYASINTHLGIEQSRRDDLESLGYVLMYFNLGSLPWQGLKAATKRQKYERISEKKMSTPIEVLCKGYPSEFSTYLNFCRSLRFDDKPDYSYLRQLFRNLFHRQGFSYDYVFDWNMLKFGAARNPEDVDRERREHEREERMGQLRGSATRALPPGPPTGATANRLRSAAEPVASTPASRIQPAGNTSPRAISRVDRERKVSMRLHRGAPANVSSSDLTGRQEVSRIPASQTSVPFDHLGK,not soluble
10,MELSSLTAVSPVDGRYGDKVSALRGIFSEYGLLKFRVQVEVRWLQKLAAHAAIKEVPAFAADAIGYLDAIVANFSEEDAARIKTIERTTNHDVKAVEYFLKEKVAEIPELHAVSEFIHFACTSEDINNLSHALMLKTARDEVILPYWRQLIDGIKDLAVQYRDIPLLSRTHGQPATPSTIGKEMANVAYRMERQHRQLNQVEILGKINGAVGNYNAHIAAYPEVDWHQFSEEFVTSLGIQWNPYTTQIEPHDYIAELFDCVARFNTILIDFDRDVWGYIALNHFKQKTIAGEIGSSTMPHKVNPIDFENSEGNLGLSNAVLQHLASKLPVSRWQRDLTDSTVLRNLGVGIGYALIAYQSTLKGVSKLEVNRDHLLDELDHNWEVLAEPIQTVMRRYGIEKPYEKLKELTRGKRVDAEGMKQFIDGLALPEEEKARLKAMTPANYIGRAITMVDELK,not soluble
11,MELVKTIQIGDDIYPPIPDLFGIQENQEFNLYKSTDGTLVLSPSDSKLSADHQSISSDEQMTTAVEQARLDEIATSVLSRHLDAFKELTE,not soluble
12,MEMYFKRMKDEWTGLVEQADPPIRAKAAEIAVAHAHYLSIEFYRIVRIDPHAEEFLSNEQVERQLKSAMERWIINVLSAQVDDVERLIQIQHTVAEVHARIGIPVEIVEMGFRVLKKILYPVIFSSDYSAAEKLQVYHFSINSIDIAMEVMTRAFTFSDSLEHHHHHH,not soluble
13,MEMYFKRMKDEWTGLVEQADPPIRAKAAEIAVAHAHYLSIEFYRIVRIDPHAEEFLSNEQVERQLKSAMERWIINVLSAQVDDVERLIQIQHTVAEVHARIGIPVEIVEMGFRVLKKILYPVIFSSDYSAAEKLQVYHFSINSIDIAMEVMTRAFTFSDSSASKELEHHHHHH,soluble
14,MENNPFQRTEKIDISWCPGCGNFAIKASLSNALSKLNLKPQNVAIISGIGQAGKMPHYMFVNGFHTLHGRAIPAATAVKATNPELTVIAEGGDGDMYAEGGNHLIHAIRRNPNITVLIHNNQIYGLTKGQASPTTLVSTKTPTQPWGVFEEPLNPIALAISLNASFVARTFSGNLEKTEEIIIKAINHKGLSIVDIFHPCPSFNKVNTLQWYNENTYFLEDHDVTDRKKAFEKALQTEKYPLGIFYTCEKPVFEEVVPPYISEKTPIWKREPDLEKIEEIINSKRT,not soluble
15,MENREPPLLPARWSSAYVSYWSPMLPDDQLTSGYCWFDYERDICRIDGLFNPWSERDTGYRLWMSEVGNAASGRTWKQKVAYGRERTALGEQLCERPLDDETGPFAELFLPRDVLRRLGARHIGRRVVLGREADGWRYQRPGKGPSTLYLDAASGTPLRMVTGDEASRASLRDFPNVSEAEIPDAVFAAKRLEHHHHHH,soluble
